Entries after “also recorded” stand apart in the source; their conditions may differ.
How the values were obtained:
[1] = tested on: B-Raf mutated cell lines (H29, A375, A2058 and WM115); test: Cell proliferative assays in B-Raf mutated cell lines; type: cell-based; settings: four B-Raf mutated cell lines
Method: To investigate whether NRG signaling attenuates the anti-proliferative effects of trametinib or vemurafenib, cells were exposed to the drugs in the presence or absence of NRG. In addition, 2C2-YTE was introduced in a separate set of samples. Cell proliferative assays were performed in all four B-Raf mutated cell lines (H29, A375, A2058 and WM115).

ErbB3 (HER3) = biological target: T1, ErbB3 (HER3) (Homo sapiens (Human), UniProt P21860 20-1342); test: binding of fluorescent probe to HT29, A375, A2058 and WM115 cells; mean fluorescence intensity, total over non-specific (excess unlabelled probe)
T1 construct: They are human tumour lines, so human HER3 is meant; also called HER3 receptor
Method: The effects of trametinib and vemurafenib on cell-surface expressed ErbB3 were also monitored. HT29, A375, A2058 and WM115 cells were treated with 100 nM trametinib or 1 μM vemurafenib for 24 hours at 37° C. […] Specific binding was determined by calculating the mean fluorescent intensity ratio of total binding (labeled probe alone) divided by the non-specific binding (labeled probe with excess of unlabeled probe). Values should be reported as the binding ratio of drug-treated samples divided by the untreated sample.

Molecule	effect of NRG on anti-proliferative effects of trametinib or vemurafenib [1]	binding result (ErbB3 (HER3))
NRG: neuregulin, HER3 ligand used to stimulate cells (protein) SHLVKCAEKEKTFCVNGGECFMVKDLSNPSRYLCKCPNEFTGDRCQNYVMASFYKHLGIEFMEAE	can robustly attenuate the effects of BRAF and MEK inhibitors; also recorded: attenuates the anti-proliferative effects of the BRAF and MEK inhibitors	
2C2-YTE anti-HER3 antibody (antibody, V domains shown, In the phosphorylation and proliferation assays it was unlabelled; also called 2C2-YTE mutant antibody; anti-HER3 antibody (2C2-YTE); not shown: human lambda light chain constant region) VH: EVQLLESGGGLVQPGGSLRLSCAASGFTFSYYYMQWVRQAPGKGLEWVSYIGSSGGVTNYADSVKGRFTISRDNSKNTLYLQMNSLRAEDTAVYYCARVGLGDAFDIWGQGTMVTVSS VL: QSVLTQPPSASGTPGQRVTISCSGSLSNIGLNYVSWYQQLPGTAPKLLISRNNQRPSGVPDRFSGSKSGTSASLAISGLRSEDEADYYCAAWDDSPPGEAFGGGTKLTVL		binds

Reference: patent US20170190788A1, “USES OF ANTI-HER3 ANTIBODIES FOR TREATING CANCER” (BULLDOG PHARMACEUTICALS, INC., priority 2014, published 2017)
